Assay results published in patent US20200283521A1 (GRANULAR THERAPEUTICS, published 2020).
Where two headings read alike, the source gives them in different places.

Tests used:
Experiment in all cases: direct ELISA on coated protein, IgG1
hVCAM-Fc [1] = molecular target: T1, hVCAM-Fc
T1 construct: member of the panel m9
T1 chain: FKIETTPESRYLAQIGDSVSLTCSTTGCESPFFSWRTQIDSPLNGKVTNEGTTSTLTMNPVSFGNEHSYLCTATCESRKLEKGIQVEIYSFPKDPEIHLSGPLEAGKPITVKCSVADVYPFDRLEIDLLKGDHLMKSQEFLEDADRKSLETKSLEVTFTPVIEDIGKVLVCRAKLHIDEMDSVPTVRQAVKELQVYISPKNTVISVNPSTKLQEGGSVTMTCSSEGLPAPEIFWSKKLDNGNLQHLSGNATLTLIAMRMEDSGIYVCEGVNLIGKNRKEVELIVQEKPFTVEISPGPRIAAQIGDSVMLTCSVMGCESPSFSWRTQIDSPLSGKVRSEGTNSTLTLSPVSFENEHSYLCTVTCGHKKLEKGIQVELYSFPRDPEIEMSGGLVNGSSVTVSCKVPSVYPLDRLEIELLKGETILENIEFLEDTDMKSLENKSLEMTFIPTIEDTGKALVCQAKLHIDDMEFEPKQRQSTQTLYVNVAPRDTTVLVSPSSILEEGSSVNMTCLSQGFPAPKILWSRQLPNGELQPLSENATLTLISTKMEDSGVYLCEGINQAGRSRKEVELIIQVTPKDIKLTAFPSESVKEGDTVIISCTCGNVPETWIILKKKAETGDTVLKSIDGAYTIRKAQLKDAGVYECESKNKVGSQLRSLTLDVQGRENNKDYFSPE

h4-1BB-Fc = molecular target: T2, h4-1BB-Fc
T2 construct: member of the panel m9
T2 sequence (chain, as listed by the source limits assumed): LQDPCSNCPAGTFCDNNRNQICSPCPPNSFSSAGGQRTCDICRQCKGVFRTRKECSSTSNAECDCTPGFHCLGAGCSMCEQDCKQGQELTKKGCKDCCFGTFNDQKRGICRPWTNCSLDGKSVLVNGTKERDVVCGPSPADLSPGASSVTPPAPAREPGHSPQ

hEpCAM-Fc [2] = molecular target: T3, hEpCAM-Fc (human, UniProt P16422)
T3 construct: Fc fusion; member of the panel m9
T3 sequence (looked up): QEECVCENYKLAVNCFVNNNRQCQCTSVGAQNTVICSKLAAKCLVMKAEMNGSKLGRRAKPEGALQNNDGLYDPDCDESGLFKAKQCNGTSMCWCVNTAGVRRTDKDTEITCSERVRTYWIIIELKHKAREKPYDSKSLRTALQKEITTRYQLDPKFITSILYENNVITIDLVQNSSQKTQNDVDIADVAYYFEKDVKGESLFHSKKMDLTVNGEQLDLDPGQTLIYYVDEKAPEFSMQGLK

hLTBR-Fc = molecular target: T4, hLTBR-Fc (human, UniProt P36941)
T4 construct: Fc fusion; member of the panel m9
T4 sequence (P36941 28-227 limits assumed): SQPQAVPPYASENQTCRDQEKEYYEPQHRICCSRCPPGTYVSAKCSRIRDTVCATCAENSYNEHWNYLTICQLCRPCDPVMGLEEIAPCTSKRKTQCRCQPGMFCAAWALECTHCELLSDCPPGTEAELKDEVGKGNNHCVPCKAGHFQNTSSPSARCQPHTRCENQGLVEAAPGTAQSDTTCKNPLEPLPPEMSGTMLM

hTWEAK-Fc = molecular target: T5, hTWEAK-Fc (human, UniProt O43508)
T5 construct: Fc fusion; member of the panel m9
T5 sequence (looked up): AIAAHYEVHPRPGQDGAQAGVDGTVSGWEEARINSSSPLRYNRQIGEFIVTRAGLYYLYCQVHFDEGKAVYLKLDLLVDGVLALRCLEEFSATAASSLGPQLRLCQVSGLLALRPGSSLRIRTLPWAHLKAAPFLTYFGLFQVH

hVCAM-Fc [3] = molecular target: T1, hVCAM-Fc
hICAM-1-Fc = molecular target: T6, hICAM-1-Fc (human, UniProt P05362)
T6 construct: Fc fusion; member of the panel m9
T6 sequence (P05362 28-480 limits assumed): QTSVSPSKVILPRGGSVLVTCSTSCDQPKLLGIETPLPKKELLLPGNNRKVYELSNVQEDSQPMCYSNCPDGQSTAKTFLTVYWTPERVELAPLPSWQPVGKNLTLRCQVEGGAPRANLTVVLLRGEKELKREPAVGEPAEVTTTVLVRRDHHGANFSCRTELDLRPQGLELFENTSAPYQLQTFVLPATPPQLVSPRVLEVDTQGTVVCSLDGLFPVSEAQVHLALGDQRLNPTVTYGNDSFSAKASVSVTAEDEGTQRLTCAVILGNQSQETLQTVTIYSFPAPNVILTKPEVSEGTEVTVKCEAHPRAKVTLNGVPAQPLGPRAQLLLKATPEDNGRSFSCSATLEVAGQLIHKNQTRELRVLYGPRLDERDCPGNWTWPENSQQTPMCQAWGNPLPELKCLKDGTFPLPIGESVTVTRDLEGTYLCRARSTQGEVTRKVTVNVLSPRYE

hOX40-Fc = molecular target: T7, hOX40-Fc
T7 construct: member of the panel m9
T7 chain: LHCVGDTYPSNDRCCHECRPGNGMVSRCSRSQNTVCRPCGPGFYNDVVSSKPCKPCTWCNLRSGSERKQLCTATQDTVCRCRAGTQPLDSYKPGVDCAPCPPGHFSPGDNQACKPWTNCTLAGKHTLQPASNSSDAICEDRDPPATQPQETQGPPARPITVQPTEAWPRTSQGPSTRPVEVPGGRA

hEpCAM-Fc [4] = molecular target: T3, hEpCAM-Fc; remark: listed apart in the source
hDR6-Fc = molecular target: T8, hDR6-Fc (human, UniProt O75509)
T8 construct: Fc fusion; member of the panel m9
T8 sequence (looked up): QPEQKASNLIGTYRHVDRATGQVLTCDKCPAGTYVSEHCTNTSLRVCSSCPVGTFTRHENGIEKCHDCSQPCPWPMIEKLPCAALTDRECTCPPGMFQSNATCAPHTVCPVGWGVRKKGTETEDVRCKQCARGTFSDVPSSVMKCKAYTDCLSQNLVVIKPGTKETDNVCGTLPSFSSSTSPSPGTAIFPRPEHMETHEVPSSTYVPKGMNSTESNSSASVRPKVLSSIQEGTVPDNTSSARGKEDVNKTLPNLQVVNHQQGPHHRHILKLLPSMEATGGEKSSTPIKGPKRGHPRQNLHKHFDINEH

hBAFFR-Fc = molecular target: T9, hBAFFR-Fc (human, UniProt Q96RJ3)
T9 construct: Fc fusion; member of the panel m9
T9 sequence (Q96RJ3 7-71 limits assumed): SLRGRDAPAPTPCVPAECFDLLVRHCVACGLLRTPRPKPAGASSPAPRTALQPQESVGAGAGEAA

hCD4 = molecular target: T10, hCD4 (human, UniProt P01730)
T10 construct: purified recombinant protein; member of the panel m9

Measured: binding result

B1: MH5, human IgG1 (antibody, V domains shown)
VH: QVQLVQSGAEVKKPGASVKVSCKASGYTFTDYYMNWVRQAPGQGLEWMGRIYPGSGNTYYAQKFQGRVTMTRDTSTSTVYMELSSLRSEDTAVYYCARGVYYYDYWGQGTLVTVSS
VL: DIQMTQSPSSLSASVGDRVTITCRASQGIRTNLAWFQQKPGKAPKSLIYSASSLQSGVPSRFSGSGSGTDFTLTISSLQPEDFATYYCQQYANYPRTFGGGTKVEIK
notes: IgG1; also called C-KIT-MH5; C-KIT-MHS
no binding (tested: 1 µg/ml): hVCAM-Fc [1] | h4-1BB-Fc | hEpCAM-Fc [2]

B2: humanized h37M, human IgG1 (antibody, V domains shown)
VH: QVQLVQSGAEVKKPGASVKLSCKASGYTFTDYYINWVRQAPGKGLEWIARIYPGSGNTYYNEKFKGRATLTADKSTSTAYMQLSSLRSEDTAVYFCARGVYYFDYWGQGTTVTVSS
VL: DIVMTQSPSSLSASVGDRVTITCKASQNVRTNVAWYQQKPGKAPKALIYSASYRYSGVPDRFTGSGSGTDFTLTISSLQPEDFADYFCQQYNSYPRTFGGGTKVEIK
notes: human IgG1; terbium-labelled as the tracer of the HTRF assays; also called C-KIT-h37M; h37M-IgG1
no binding (tested: 1 µg/ml): hLTBR-Fc | hTWEAK-Fc | hVCAM-Fc [3] | hICAM-1-Fc | hOX40-Fc | hEpCAM-Fc [4] | hDR6-Fc | hBAFFR-Fc | hCD4
